From patent publication US8580267B2, “Immunocytokines for tumour therapy with chemotherapeutic agents” (Philogen S.p.A., priority 2008, dated 2013) come the findings set out here.

Data set [1] is described as follows: body weight of mice in the subcutaneous glioblastoma therapy study. In kind it is in vivo, BALB/c nude mice.
Description: (§2) One group was injected i.v. (lateral tail vein) with 20 μg of F16-IL2 (corresponding to 6.6 μg of IL2) in a total volume of 100 μl PBS solution (Phosphate Buffer Saline), one was injected i.p. with 0.525 mg of temozolomide (corresponding to 75 mg/m^2) in a total volume of 150 μl saline 10% DMSO solution, a third group received both the i.v. injection of 20 μg F16-IL2 and the i.p. of 0.525 mg temozolomide, finally, the control group was injected i.p. with 150 μl of saline 10% DMSO.
(§3) A schedule of five total administrations was established: on days 12, 15, 18, 21, 24 from the tumour cell injection into mice (day 0).
(§4) Mice were monitored daily and tumours were measured with a digital caliper three times per week. Tumour volume was estimated using the formula: volume=length×width^2/2. Animals were sacrificed when tumours approached a volume of 3,000 mm^3 or when tumours turned necrotic and bleeding, according to the Swiss regulations and under a project license granted by the Veterinäramt des Kantons Zürich (198/2005).
The subject of data set [2] is subcutaneous U87 glioblastoma. As to the kind of experiment: therapy study in subcutaneous glioma mouse model. The note with it: for effect on tumour growth: five administrations days 12-24, F16-IL2 20 μg i.v., temozolomide 0.525 mg i.p., temozolomide result by day 30.
Description: Subcutaneous glioblastoma bearing mice were obtained by a s.c. flank injection of 5×10^6 U87 cells in 8-week old female BALB/c nude mice [66]. Twelve days after tumour cell implantation, when tumours had reached a size of 250-300 mm^3, mice were staged to maximize uniformity among the groups (n=5).
as §2, §3, §4
Tumour volumes are shown as average ±SD or SE. Kaplan-Meier survival curves were performed to display therapeutic efficacy in the subcutaneous glioma model.
In the next data set the test system is subcutaneous U87 tumours. In words: quantitative biodistribution analysis in mice bearing subcutaneous U87 tumours. The class given is in vivo, BALB/c nude mice. The note with it: radioiodinated F16-IL2 i.v., 24 h after injection. The protocol:
(§1) The in vivo targeting performance of F16-IL2 was evaluated by quantitative biodistribution analysis. […] Antibody immunoreactivity after labelling was evaluated by loading a sample of radiolabelled F16-IL2 onto TNC-A1-Sepharose resin, followed by radioactive counting of the flow-through and of the eluate fractions. Immunoreactivity, defined as the ratio between the counts of the eluted protein and the sum of the counts of the eluted and flow-through fractions, was 84%. Mice were sacrificed 24 hours after injection of F16-IL2 (10 μg, 3.6 μCi per mouse). Organs were weighed and radioactivity was counted with a Packard Cobra gamma counter. Radioactivity content of representative organs was expressed as the percentage of the injected dose per gram of tissue (% ID/g).

Another data set relates to s.c. U87 tumours. In words: immunofluorescence assessment of tumour-infiltrating cells and microvascular density in subcutaneous glioma xenografts. The class given is in vivo, Balb/c nude mice. As to conditions: anti-human IL2 staining, after three injections. Here is the method: To evaluate the role of inflammatory cell responses in vivo, female Balb/c nude mice bearing s.c. U87 tumours (3 mice per group) were treated on days 12, 15 and 18 after tumour cell implantation with either saline 10% DMSO (i.p.), F16-IL2 (i.v.), temozolomide (i.p.), and F16-IL2 (i.v.) plus temozolomide (i.p.). Mice were sacrificed 24 hours after the third injection, and tumours were excised and snap-frozen in OCT. […]
Sections of 10 μm thickness were treated with ice-cold acetone, rehydrated in PBS and blocked with PBS 10% donkey serum+10% goat serum. […] Bound antibody was detected with fluorescent Alexa488- or Alexa594-coupled secondary antibodies (donkey anti-rat or goat anti-rabbit, BD Biosciences Pharmingen) and DAPI in a PBS 12% BSA solution.
In each tumour section, the staining given by the primary antibodies was quantified in three representative 10× microscopic images using the ImageJ software (http://rsb.info.nih.gov/ij/).
(Xenograft models place foreign cells or tissue in a host animal.)

Another data set has as its target T1, TNC-A1 (Homo sapiens, UniProt P24821).
T1 construct: loading a sample of radiolabelled F16-IL2 onto TNC-A1-Sepharose resin
T1 sequence (P24821 1076-1165 limits assumed): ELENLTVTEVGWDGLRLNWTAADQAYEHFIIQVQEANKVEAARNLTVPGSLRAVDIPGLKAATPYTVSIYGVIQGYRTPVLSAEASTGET
As to the kind of experiment: immunoreactivity after radiolabelling on TNC-A1-Sepharose resin. The note with it: radiolabelled F16-IL2 on TNC-A1-Sepharose resin. In kind it is binding. Here is the method:
as §1

Data set [3] concerns the target T2, extra-domain A1 of tenascin C (Homo sapiens, UniProt P24821).
T2 construct: F16 is a human monoclonal antibody specific to the extra-domain A1 of tenascin C [25]
T2 sequence (P24821 1076-1165 limits assumed): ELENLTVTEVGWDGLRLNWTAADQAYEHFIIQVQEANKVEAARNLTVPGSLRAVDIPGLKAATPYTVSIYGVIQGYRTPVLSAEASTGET
As to the kind of experiment: real-time interaction analysis on a BIAcore 3000 instrument. In kind it is binding. The note with it: after affinity maturation.

Another data set addresses T3, A1 domain of tenascin-C (Homo sapiens, UniProt P24821).
T3 construct: from tissue; host or cells: human glioblastoma surgical specimens; U87 glioblastoma xenografts grown s.c. in nude mice
In words: immunohistochemistry on human glioblastoma specimens and U87 xenografts with F16. The note with it: biotinylated SIP format, 2 μg/ml; patterns and intensities comparable to L19. The protocol:
Freshly frozen human glioblastoma tissues were received from the Neurosurgery department of Basel University Hospital, Basel, Switzerland, and were stored at −80° C.
For immunohistochemical procedures, the F16 antibody was used in biotinylated small immunoprotein (SIP) format. F16 is a human monoclonal antibody specific to the extra-domain A1 of tenascin C [25]. […] The SIP antibody format consists of a covalent homodimer in which each monomeric unit comprises a scFv fused to a human CH4 domain of the secretory isoform S2 of human IgE (as exemplified for antibody L19 in ref. [65]). This domain promotes the formation of homodimers that are further stabilized by disulfide bonds between the C-terminal cysteine residues, resulting in a 75 kDa homobivalent miniantibody. This SIP antibody was further biotinylated in order to avoid background staining given by the human endogenous IgE.
Sections of 10 μm thickness were treated with ice-cold acetone, rehydrated in TBS (50 mM Tris, 100 mM NaCl, 0.001% Aprotinin, pH 7.4) and blocked with TBS 20% fetal calf serum. Biot-(SIP) F16 antibody was added onto the sections in a final concentration of 2 μg/ml. Bound antibody was detected with streptavidin-alkaline phosphatase complex (Biospa). Fast Red (Tablets Set, Sigma) was used as phosphatase substrate and sections were counterstained with Gill's hematoxylin no. 2 (Sigma). […]

Another data set has as its target tenascin-C (Homo sapiens, UniProt P24821). In words: binding of F16 with Ala to Met mutation in VH CDR1. As to conditions: Ala to Met in position 4 of VH CDR1.

T3 sequence (P24821 23-2201): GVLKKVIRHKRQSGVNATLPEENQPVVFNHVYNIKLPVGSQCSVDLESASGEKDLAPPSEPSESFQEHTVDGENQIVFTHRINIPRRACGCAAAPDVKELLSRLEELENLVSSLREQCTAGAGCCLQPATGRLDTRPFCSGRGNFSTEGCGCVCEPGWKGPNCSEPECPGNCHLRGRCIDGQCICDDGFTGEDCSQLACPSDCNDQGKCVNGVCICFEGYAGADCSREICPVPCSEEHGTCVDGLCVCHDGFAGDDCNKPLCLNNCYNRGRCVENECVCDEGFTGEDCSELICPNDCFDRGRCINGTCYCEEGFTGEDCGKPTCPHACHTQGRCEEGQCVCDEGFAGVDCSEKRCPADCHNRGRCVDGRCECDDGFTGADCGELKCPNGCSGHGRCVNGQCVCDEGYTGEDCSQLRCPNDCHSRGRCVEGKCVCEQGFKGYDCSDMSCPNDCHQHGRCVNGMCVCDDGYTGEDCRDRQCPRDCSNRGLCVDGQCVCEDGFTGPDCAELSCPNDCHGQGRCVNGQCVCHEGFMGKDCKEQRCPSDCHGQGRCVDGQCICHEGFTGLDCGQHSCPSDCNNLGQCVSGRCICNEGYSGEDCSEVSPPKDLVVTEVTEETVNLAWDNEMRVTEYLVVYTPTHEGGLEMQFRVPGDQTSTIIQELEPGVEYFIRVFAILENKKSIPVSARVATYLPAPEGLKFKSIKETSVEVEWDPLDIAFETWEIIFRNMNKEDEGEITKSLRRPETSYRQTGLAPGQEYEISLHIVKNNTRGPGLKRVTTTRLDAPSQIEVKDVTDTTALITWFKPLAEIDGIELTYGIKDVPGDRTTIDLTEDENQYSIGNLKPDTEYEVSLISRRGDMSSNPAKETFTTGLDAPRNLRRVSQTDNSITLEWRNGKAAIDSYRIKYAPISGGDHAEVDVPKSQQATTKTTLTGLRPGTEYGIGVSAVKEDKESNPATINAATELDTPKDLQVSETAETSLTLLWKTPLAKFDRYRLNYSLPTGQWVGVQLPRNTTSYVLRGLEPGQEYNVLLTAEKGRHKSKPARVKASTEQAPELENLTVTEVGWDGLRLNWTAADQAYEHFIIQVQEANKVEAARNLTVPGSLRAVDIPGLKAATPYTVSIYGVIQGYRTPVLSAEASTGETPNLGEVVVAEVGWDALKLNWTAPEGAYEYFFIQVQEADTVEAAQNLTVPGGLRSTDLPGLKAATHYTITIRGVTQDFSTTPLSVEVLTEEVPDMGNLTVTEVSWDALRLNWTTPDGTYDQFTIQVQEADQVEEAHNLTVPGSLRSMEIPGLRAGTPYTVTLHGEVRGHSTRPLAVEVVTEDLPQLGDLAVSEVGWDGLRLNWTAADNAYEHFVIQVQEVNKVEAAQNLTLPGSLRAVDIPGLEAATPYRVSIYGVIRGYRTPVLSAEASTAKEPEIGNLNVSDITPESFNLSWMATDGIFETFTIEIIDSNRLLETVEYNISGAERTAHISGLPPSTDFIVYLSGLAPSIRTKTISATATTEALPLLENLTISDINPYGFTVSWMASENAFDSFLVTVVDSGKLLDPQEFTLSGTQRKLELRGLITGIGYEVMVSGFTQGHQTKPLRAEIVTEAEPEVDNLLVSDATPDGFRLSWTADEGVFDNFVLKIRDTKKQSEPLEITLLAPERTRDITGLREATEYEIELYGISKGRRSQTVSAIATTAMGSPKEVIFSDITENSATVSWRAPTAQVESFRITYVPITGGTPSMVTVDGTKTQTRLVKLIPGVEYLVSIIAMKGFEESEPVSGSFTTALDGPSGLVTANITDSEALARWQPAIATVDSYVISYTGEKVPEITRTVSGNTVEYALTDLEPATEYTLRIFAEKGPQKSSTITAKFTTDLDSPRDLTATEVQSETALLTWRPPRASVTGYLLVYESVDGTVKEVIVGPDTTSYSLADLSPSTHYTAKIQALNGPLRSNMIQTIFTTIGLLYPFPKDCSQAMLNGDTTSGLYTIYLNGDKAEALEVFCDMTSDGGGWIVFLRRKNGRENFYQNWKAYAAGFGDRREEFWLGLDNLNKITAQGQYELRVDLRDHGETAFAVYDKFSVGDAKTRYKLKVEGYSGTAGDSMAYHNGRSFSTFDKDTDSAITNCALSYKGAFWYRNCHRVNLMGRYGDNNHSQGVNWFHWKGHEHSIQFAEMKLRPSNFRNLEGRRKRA
Chain of tenascin-C (P24821 23-2201): as above

`Cn1nnc2c(C(N)=O)ncn2c1=O` [temozolomide, 8-carbamoyl-3-methylimidazo[5,1-d]-1,2,3,5-tetrazin-4(3H)-one]: in data set [1] (after the fifth injection), the “transient weight loss, nadir” value was 10%. For the same molecule, in data set [2] (by day 45), the “mice in which tumours started growing again” value is 3/5. Also, the “effect on tumour growth” value in data set [2] is recorded as “virtually complete tumour regression”. Further, the “mice surviving over 3 months from the tumour cell injection” value in data set [2] (n=5 per group, combination group alive and tumour-free) is given as “two mice”. Further, the “day before which the other animals were sacrificed” value in data set [2] (tumour had reached the cut-off size) was below 106 days.
Turning to “F16-IL2: clinical-stage immunocytokine consisting of human IL-2 fused to the human antibody F16, specific to the A1 domain of tenascin-C”, in data set [1] (F16-IL2 20 μg i.v., five administrations), the “weight loss” value is recorded as “no weight loss”. Further, in the data set with subcutaneous U87 tumours, the “accumulation in the tumour” value was 2.3 % ID/g and the tumour-to-blood ratio is on record as 11.5. The “sacrifice of the last mouse, day from tumour cell inoculation” value in data set [2] (Kaplan-Meier survival, cut-off tumour size 3,000 mm^3) amounted to 47 days. Also, in data set [2], the “effect on tumour growth” value is given as “minor tumour growth retardation”. Also, the “localization of the immunocytokine within the tumour” value with s.c. U87 tumours is “perivascular region and in the tumour extracellular matrix”. In the data set with TNC-A1, the “immunoreactivity (eluted counts / eluted + flow-through counts)” value was determined as 84%.

B1: F16: human monoclonal antibody specific to the extra-domain A1 of tenascin C; used in biotinylated SIP format for immunohistochemistry (antibody, V domains shown)
VH: EVQLLESGGGLVQPGGSLRLSCAASGFTFSRYGASWVRQAPGKGLEWVSAISGSGGSTYYADSVKGRFTISRDNSKNTLYLQMNSLRAEDTAVYYCAKAHNAFDYWGQGTLVTVSR
VL: SSELTQDPAVSVALGQTVRITCQGDSLRSYYASWYQQKPGQAPVLVIYGKNNRPSGIPDRFSGSSSGNTASLTITGAQAEDEADYYCNSSVYTMPPVVFGGGTKLTVL
On to B1, for which the dissociation constant result in data set [3] was “low nanomolar range”. For the same molecule, in the data set with A1 domain of tenascin-C, the “staining of tumour sections” value is “strongly stain both experimental U87 tumours and glioblastomas from patients”.

B2: improved variant of F16: 4A1-F16 having the Ala to Met mutation in VH CDR1, giving VH CDR1 SEQ ID NO: 18 (antibody, V domains shown)
VH: EVQLLESGGGLVQPGGSLRLSCAASGFTFSRYGMSWVRQAPGKGLEWVSAISGSGGSTYYADSVKGRFTISRDNSKNTLYLQMNSLRAEDTAVYYCAKAHNAFDYWGQGTLVTVSR
VL: SSELTQDPAVSVALGQTVRITCQGDSLRSYYASWYQQKPGQAPVLVIYGKNNRPSGIPDRFSGSSSGNTASLTITGAQAEDEADYYCNSSVYTMPPVVFGGGTKLTVL
B2: the “binding affinity to tenascin-C” value with tenascin-C is reported as “retaining high affinity binding to tenascin-C”.
